From patent US20030232757A1

Biological target: T1, CryET39 crystal protein (Bacillus thuringiensis delta-endotoxin, approximately 44-kDa) (Bacillus thuringiensis (strain EG5899))
T1 sequence: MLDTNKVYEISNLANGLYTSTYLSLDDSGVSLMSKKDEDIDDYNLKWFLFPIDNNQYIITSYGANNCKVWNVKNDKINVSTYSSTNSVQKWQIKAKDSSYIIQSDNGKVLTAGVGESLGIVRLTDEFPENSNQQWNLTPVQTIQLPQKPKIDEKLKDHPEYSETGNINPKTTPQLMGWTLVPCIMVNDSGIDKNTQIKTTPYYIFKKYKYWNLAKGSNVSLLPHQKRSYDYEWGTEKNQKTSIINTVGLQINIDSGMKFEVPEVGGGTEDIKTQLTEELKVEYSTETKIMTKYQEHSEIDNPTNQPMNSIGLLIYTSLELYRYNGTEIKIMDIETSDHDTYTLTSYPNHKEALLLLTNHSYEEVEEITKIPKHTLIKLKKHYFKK
Assay: cell-based or functional assay

B1: CryET74 crystal protein (Bacillus thuringiensis delta-endotoxin, approximately 13-15-kDa) (protein)
chain: MSAREVHIEINNKTRHTLQLEDKTKLSGGRWRTSPTNVARDTIKTFVAESHGFMTGVEGIIYFSVNGDAEISLHFDNPYIGSNKCDGSSDKPEYEVITQSGSGDKSHVTYTIQTVSLRL
93.3: Percent Control (WCRW larval mortality corrected for diluent control); 50:50 mixture EG11935 (CryET74) + EG11937 (2) (CryET39), dose 160 µg/well (percent control)
100: Percent Control (WCRW larval mortality corrected for diluent control); 50:50 mixture EG11935 (CryET74) + EG11937 (1) (CryET39), dose 80 µg/well (percent control) | Percent Control (WCRW larval mortality corrected for diluent control); 50:50 mixture EG11935 (CryET74) + EG11937 (1) (CryET39), dose 160 µg/well (percent control) | Percent Control (WCRW larval mortality corrected for diluent control); 50:50 mixture EG11935 (CryET74) + EG11937 (2) (CryET39), dose 80 µg/well (percent control) | Percent Control (WCRW larval mortality corrected for diluent control); EG11936 (CryET39 + CryET74 co-expressed), dose 80 µg/well (percent control) | Percent Control (WCRW larval mortality corrected for diluent control); EG11936 (CryET39 + CryET74 co-expressed), dose 160 µg/well (percent control)
